Our source for the Affinity change values is patent US20150274828A1 (SHANGHAI SERUM BIOTECHNOLOGY, published 2015).

Where a chain is given by its changes, count along the chain named.

B1: Ame55 mutant, heavy chain 51A (antibody, V domains shown)
VH: EVQLVQSGAEVKKPGESLKISCKGSGYSFTSYWIGWVRQMPGKGLEWMGIAYPGDSDTRYSPSFQGQVTISADKSISTAYLQWSSLKASDTAMYYCARGIIYPSNVAVWGQGTLVTVSS
VL: SYELTQPPSVSVAPGQTARITCSGDALGDKYASWYQQKPGQAPVLVIYEDSKRPSGIPERFSGSNSGNTATLTISGTQAEDEADYYCSVWDGDWGMPVFGGGTKLTVLG
notes: Mutant of Ame55
B2: Ame55 mutant, light chain 33Y (antibody, V domains shown)
VH: B1 VH with A51I
VL: B1 VL with S33Y
notes: Mutant of Ame55
B3: Ame55 mutant, heavy chain 101A (antibody, V domains shown)
VH: B1 VH with A51I, I101A
VL: B1 VL
notes: Mutant of Ame55
B4: Ame55 mutant, heavy chain 59N (antibody, V domains shown)
VH: B1 VH with A51I, R59N
VL: B1 VL
notes: Mutant of Ame55
B5: Ame55 mutant, light chain 88Q (antibody, V domains shown)
VH: B1 VH with A51I
VL: B1 VL with S88Q
notes: Mutant of Ame55
B6: Ame55 mutant, light chain 51G (antibody, V domains shown)
VH: B1 VH with A51I
VL: B1 VL with S51G
notes: Mutant of Ame55
B7: Ame55 mutant, heavy chain 52D (antibody, V domains shown)
VH: B1 VH with A51I, Y52D
VL: B1 VL
notes: Mutant of Ame55
B8: Ame55 mutant, heavy chain 53A (antibody, V domains shown)
VH: B1 VH with A51I, P53A
VL: B1 VL
notes: Mutant of Ame55
B9: Ame55 mutant, light chain 93A (antibody, V domains shown)
VH: B1 VH with A51I
VL: B1 VL with D93A
notes: Mutant of Ame55
B10: Ame55 mutant, light chain 92P (antibody, V domains shown)
VH: B1 VH with A51I
VL: B1 VL with G92P
notes: Mutant of Ame55
B11: Ame55 mutant, heavy chain 106A (antibody, V domains shown)
VH: B1 VH with A51I, V106A
VL: B1 VL
notes: Mutant of Ame55
B12: Ame55 mutant, heavy chain 105A (antibody, V domains shown)
VH: B1 VH with A51I, N105A
VL: B1 VL
notes: Mutant of Ame55
B13: Ame55 mutant, light chain 26G(C1) (antibody, V domains shown)
VH: B1 VH with A51I
VL: B1 VL with A26G
notes: Mutant of Ame55
B14: Ame55 mutant, heavy chain 59A (antibody, V domains shown)
VH: B1 VH with A51I, R59A
VL: B1 VL
notes: Mutant of Ame55
B15: Ame55 mutant, light chain 32I (antibody, V domains shown)
VH: B1 VH with A51I
VL: B1 VL with A32I
notes: Mutant of Ame55
B16: Ame55 mutant, light chain 92A (antibody, V domains shown)
VH: B1 VH with A51I
VL: B1 VL with G92A
notes: Mutant of Ame55
B17: Ame55 mutant, light chain 91A (antibody, V domains shown)
VH: B1 VH with A51I
VL: B1 VL with D91A
notes: Mutant of Ame55
B18: Ame55 mutant, heavy chain 55A (antibody, V domains shown)
VH: B1 VH with A51I, D55A
VL: B1 VL
notes: Mutant of Ame55
B19: Ame55 mutant, light chain 26K(C3) (antibody, V domains shown)
VH: B1 VH with A51I
VL: B1 VL with A26K
notes: Mutant of Ame55
B20: Ame55 mutant, heavy chain 107S (antibody, V domains shown)
VH: B1 VH with A51I, A107S
VL: B1 VL
notes: Mutant of Ame55
B21: Ame55 mutant, light chain 92S (antibody, V domains shown)
VH: B1 VH with A51I
VL: B1 VL with G92S
notes: Mutant of Ame55
B22: Ame55 mutant, heavy chain 56A (antibody, V domains shown)
VH: B1 VH with A51I, S56A
VL: B1 VL
notes: Mutant of Ame55
B23: Ame55 mutant, heavy chain 99S (antibody, V domains shown)
VH: B1 VH with A51I, G99S
VL: B1 VL
notes: Mutant of Ame55
B24: Ame55 mutant, light chain 88N (antibody, V domains shown)
VH: B1 VH with A51I
VL: B1 VL with S88N
notes: Mutant of Ame55
B25: Ame55 mutant, heavy chain 58A (antibody, V domains shown)
VH: B1 VH with A51I, T58A
VL: B1 VL
notes: Mutant of Ame55
B26: Ame55 mutant, heavy chain 54S (antibody, V domains shown)
VH: B1 VH with A51I, G54S
VL: B1 VL
notes: Mutant of Ame55
B27: Ame55 mutant, heavy chain 100A (antibody, V domains shown)
VH: B1 VH with A51I, I100A
VL: B1 VL
notes: Mutant of Ame55
B28: Ame55 mutant, light chain 32V (antibody, V domains shown)
VH: B1 VH with A51I
VL: B1 VL with A32V
notes: Mutant of Ame55
B29: Ame55 mutant, heavy chain 54A (antibody, V domains shown)
VH: B1 VH with A51I, G54A
VL: B1 VL
notes: Mutant of Ame55
B30: Ame55 mutant, light chain 55P (antibody, V domains shown)
VH: B1 VH with A51I
VL: B1 VL with S55P
notes: Mutant of Ame55
B31: Ame55 mutant, heavy chain 99A (antibody, V domains shown)
VH: B1 VH with A51I, G99A
VL: B1 VL
notes: Mutant of Ame55
B32: Ame55 mutant, light chain 29E (antibody, V domains shown)
VH: B1 VH with A51I
VL: B1 VL with D29E
notes: Mutant of Ame55
B33: Ame55 mutant, heavy chain 104A (antibody, V domains shown)
VH: B1 VH with A51I, S104A
VL: B1 VL
notes: Mutant of Ame55
B34: Ame55 mutant, heavy chain 108A (antibody, V domains shown)
VH: B1 VH with A51I, V108A
VL: B1 VL
notes: Mutant of Ame55
B35: Ame55 mutant, light chain 94A (antibody, V domains shown)
VH: B1 VH with A51I
VL: B1 VL with W94A
notes: Mutant of Ame55
B36: Ame55 mutant, light chain 26N(C2) (antibody, V domains shown)
VH: B1 VH with A51I
VL: B1 VL with A26N
notes: Mutant of Ame55
B37: Ame55 mutant, heavy chain 107G (antibody, V domains shown)
VH: B1 VH with A51I, A107G
VL: B1 VL
notes: Mutant of Ame55
B38: Ame55 mutant, heavy chain 60A (antibody, V domains shown)
VH: B1 VH with A51I, Y60A
VL: B1 VL
notes: Mutant of Ame55
B39: Ame55 mutant, light chain 88G (antibody, V domains shown)
VH: B1 VH with A51I
VL: B1 VL with S88G
notes: Mutant of Ame55
B40: Ame55 mutant, light chain 89L (antibody, V domains shown)
VH: B1 VH with A51I
VL: B1 VL with V89L
notes: Mutant of Ame55
B41: Ame55 mutant, light chain 88L (antibody, V domains shown)
VH: B1 VH with A51I
VL: B1 VL with S88L
notes: Mutant of Ame55
B42: Ame55 mutant, light chain 90A (antibody, V domains shown)
VH: B1 VH with A51I
VL: B1 VL with W90A
notes: Mutant of Ame55
B43: Ame55 mutant, light chain 88A (antibody, V domains shown)
VH: B1 VH with A51I
VL: B1 VL with S88A
notes: Mutant of Ame55
B44: Ame55 mutant, light chain 88Y (antibody, V domains shown)
VH: B1 VH with A51I
VL: B1 VL with S88Y
notes: Mutant of Ame55
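Note: parent antibody affinity set as 1, with values giving the fold drop in affinity of each mutant antibody relative to that parent.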

For the experiment, the target named is T1, EGFR-Fc fusion protein (recombinant EGFR extracellular region-Fc) (human, UniProt P00533 25-645).
T1 construct: extracellular domain; not shown: Fc part supplied by vector pABG1
The experiment is described as follows: BLI ForteBio QKe, biotinylated EGFR-Fc on streptavidin sensor, antibody 20 nM; fold reduction of affinity, parent Ame55 = 1. (In general: Biolayer interferometry detects binding as a change in optical thickness at a sensor tip.)
For the molecule B1, the Affinity change is over 10 fold.

With B2, the Affinity change came to 2 fold.

Take B3: the Affinity change worked out at 4 fold.

With B4, the Affinity change is over 10 fold.

Consider B5, for which the Affinity change came to 2 fold.

In the case of B6, the Affinity change stood at 1 fold.

Consider B7, for which the Affinity change is over 10 fold.

Consider B8, for which the Affinity change amounted to 5 fold.

Regarding B9, the Affinity change is over 10 fold.

For B10, the Affinity change stood at 1 fold.

On to B11, for which the Affinity change is over 10 fold.

B12: the Affinity change is over 10 fold.

Take B13: the Affinity change is 0.5 fold.

As for B14, the Affinity change is over 10 fold.

With B15, the Affinity change was found to be 1 fold.

As to B16, the Affinity change was 2 fold.

Take B17: the Affinity change was over 10 fold.

For the molecule B18, the Affinity change is over 100 fold.

Turning to B19, the Affinity change turned out to be 0.3 fold.

Turning to B20, the Affinity change came to 0.2 fold.

As for B21, the Affinity change amounted to 4 fold.

On to B22, for which the Affinity change amounted to 1 fold.

For B23, the Affinity change is over 10 fold.

Consider B24, for which the Affinity change is over 10 fold.

B25: the Affinity change is over 10 fold.

Turning to B26, the Affinity change was determined as 0.5 fold.

As to B27, the Affinity change stood at 5 fold.

Regarding B28, the Affinity change is 2 fold.

Turning to B29, the Affinity change was over 10 fold.

With B30, the Affinity change is 2 fold.

Regarding B31, the Affinity change was over 10 fold.

With B32, the Affinity change is over 100 fold.

For the molecule B33, the Affinity change was 3 fold.

Regarding B34, the Affinity change was found to be 5 fold.

With B35, the Affinity change was over 10 fold.

Regarding B36, the Affinity change was determined as 1 fold.

For B37, the Affinity change stood at 1.5 fold.

For the molecule B38, the Affinity change was found to be 5 fold.

As for B39, the Affinity change worked out at 3 fold.

With B40, the Affinity change is 5 fold.

On to B41, for which the Affinity change was 5 fold.

Turning to B42, the Affinity change is over 10 fold.

As for B43, the Affinity change is over 10 fold.

Consider B44, for which the Affinity change was found to be 5 fold.
